Laboratory results: patent US12269859B2, “Synthetic immune receptors and methods of use thereof” (Angeles Therapeutics, Inc., priority 2016, dated 2025)

Tested on: target antigen-expressing cell line
Assay: Jurkat NFAT-GFP assay, coculture with target cell lines expressing the respective target antigen (summary Table 10A)
Format: cell-based, human
Parameters: key: The signs +/−, +, 2+ etc. after the name of the cell lines indicate the relative degree of positivity on the Jurkat-NFAT-GFP assay as measured by the % GFP positive cells; +: relative degree of positivity on the Jurkat-NFAT-GFP assay as measured by the % GFP positive cells; 2+: relative degree of positivity on the Jurkat-NFAT-GFP assay as measured by the % GFP positive cells
Conditions: relative % GFP positive cells; for NFAT-GFP ASSAY Positive Cell lines: NALM6: SIR-expressing Jurkat-NFAT-GFP cells cocultured with NALM6; for NFAT-GFP ASSAY Positive Cell lines: RAJI: SIR-expressing Jurkat-NFAT-GFP cells cocultured with RAJI
Outline: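 Jurkat cells carrying an NFAT-driven GFP reporter and lentivirally expressing a SIR were cocultured with antigen-bearing target cells (E:T ~1:2) for about 4–18 h. GFP induction read by flow cytometry as % GFP+ cells, scored positive and graded (+/−, +, 2+) against parental Jurkat-NFAT-GFP cells.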

B1: 092517-F01 (protein)
chain: MALPVTALLLPLALLLHAARPLEGKPIPNPLLGLDSTGSGEDLKNVFPPEVAVFEPSKAEIAHTQKATLVCLATGFYPDHVELSWWVNGKEVHSGVCTDPQPLKEQPALNDSRYCLSSRLRVSATFWQNPRNHFRCQVQFYGLSENDEWTQDRAKPVTQIVSAEAWGRADCGITSASYHQGVLSATILYEILLGKATLYAVLVSALVLMAMVKRKDSRGRAKRSGSGATNFSLLKQAGDVEENPGPTSMALPVTALLLPLALLLHAARPDVVMTQSPSSLSASVGDRVTITCRASQDISKYLNWYQQKPGKAPKLLIYHTSRLHSGVPSRFSGSGSGTDFTLTISSLQPEDFATYYCQQGNTLPYTFGGGTKVEIKGGGGSGGGGSGGGGSQVQLQESGPGLVKPSQTLSLTCTVSGVSLPDYGVSWIRQPPGKGLEWIGVIWGSETTYYNSALKSRVLISVDTSKNQVSLKLSSVTAADTAVYYCARHYYYGGSYAMDYWGQGTTVTVSSTREQKLISEEDGSGIQNPDPAVYQLRDSKSSDKSVCLFTDFDSQTNVSQSKDSDVYITDKCVLDMRSMDFKSNSAVAWSNKSDFACANAFNNSIIPEDTFFPSSDVPCDVKLVEKSFETDTNLNFQNLSVIGFRILLLKVAGFNLLMTLRLWSSRAKRSGSGVKQTLNFDLLKLAGDVESNPGPSRGHMTEYKPTVRLATRDDVPRAVRTLAAAFADYPATRHTVDPDRHIERVTELQELFLTRVGLDIGKVWVADDGAAVAVWTTPESVEAGAVFAEIGPRMAELSGSRLAAQQQMEGLLAPHRPKEPAWFLATVGVSPDHQGKGLGSAVVLPGVEAAERAGVPAFLETSAPRNLPFYERLGFTVTADVEVPEGPRTWCMTRKPGA
  NFAT-GFP ASSAY Positive Cell lines: NALM6: RAJI (+), NALM6 (+)
  NFAT-GFP ASSAY Positive Cell lines: RAJI: RAJI (+), NALM6 (+)

B2: 110217-D01 (protein)
chain: MALPVTALLLPLALLLHAARPDVVMTQSPSSLSASVGDRVTITCRASQDISKYLNWYQQKPGKAPKLLIYHTSRLHSGVPSRFSGSGSGTDFTLTISSLQPEDFATYYCQQGNTLPYTFGGGTKVEIKLEDLKNVFPPEVAVFEPCEAEISHTQKATLVCLATGFYPDHVELSWWVNGKEVHSGVSTDPQPLKEQPALNDSRYCLSSRLRVSATFWQNPRNHFRCQVQFYGLSENDEWTQDRAKPVTQIVSAEAWGRADCGFTSESYQQGVLSATILYEILLGKATLYAVLVSALVLMAMVKRKDSRGRAKRSGSGATNFSLLKQAGDVEENPGPTSMDWIWRILFLVGAATGAHSFEQVQLQESGPGLVKPSQTLSLTCTVSGVSLPDYGVSWIRQPPGKGLEWIGVIWGSETTYYNSALKSRVLISVDTSKNQVSLKLSSVTAADTAVYYCARHYYYGGSYAMDYWGQGTTVTVSSTRIQNPDPAVCQLRDSKSSDKSVCLFTDFDSQTNVSQSKDSDVYITDKTVLDMRSMDFKSNSAVAWSNKSDFACANAFNNSIIPEDTFFPSPESSCDVKLVEKSFETDTNLNFQNLSVIGFRILLLKVAGFNLLMTLRLWSS
  NFAT-GFP ASSAY Positive Cell lines: NALM6: (+/−)
  NFAT-GFP ASSAY Positive Cell lines: RAJI: RAJI (+/−), NALM6
